Test results taken from the DeepSol protein solubility set.

Assay: soluble on expression in E. coli; label from the status in PepcDB or PDB records

| Sequence | soluble on expression in E. coli |
| --- | --- |
| MGFYLTSRIMKNIKSQGNGEQPAISRRHFIQASSALIALPFVSSPATAQARAVTATENRPAEKVVQTCSTFDCGGKCDIRAHVSDGIVTRISTRPDNALDAQMPVMRACVRGRAYRKFVYHPDRLKYPMKRVGKRGEGKFERISWDEATTLIADNLKSITEKYGPASRYVHVGTAVSGGTFSGDKMARRLLNLTGGYLESYHSVSMGNTAAATPYTYGIAASGSSLDTLLDTKLVILWGHNPTETIFGHTNYFLQKMKQNGTRFIVVDPRYSDTVSSLADQWIPLLPTTDNALMDAMMYVIISENLHDRAFIARYAIGFDEDSMPEGVPANESLVAYLTGAKDGVVKSPEWAEKITHVPAQTIRQLARDYANTKPAALIQGWGPQRHNCGERTARGSTLLATITGNVGIKGGWAAGYGGCANRKFAAGPEMPDNPVKAKISVMNWVQAADDASKVTPDMGLKDADKLDSNIRILFSLAGNYLANQNPDLHQAVRVLEDESKIQFIVASDLFMTPSAKYADLLLPETSFMERWNIGETWGTASYLILSEKLIEPEFERRSDYDWLREVAAKLGIENEFSQGRDEKAWIEHIWEQTRLAMPDENLPDFATLQKTRQHLFKSAPFIAFEDNIRDPENHPFPTPSGKIEIFSKRLYDMQHPEIPALSHYVPAHEGPEDALAKDFPLQLITWKGKNRANSTQYANPWLIEVQQQTLWINPQDAQKRGITHGDMVRIHNSRGICEIPAEVTPRIIPGVVAMQAGAWWQPDENGVDKGGCANVLSSARITALAKGNSHQTMLVEVAKA | not soluble |
| GSPREKVAMEYLQSASRVLTRSQLRDVVASSHLLQSEFMEIPMNFVDPKEIDIPRHGTKNRYKTILPNPLSRVCLRPKNITDSLSTYINANYIRGYSGKEKAFIATQGPMINTVNDFWQMVWQEDSPVIVMITKLKEKNEKCVLYWPEKRGIYGKVEVLVTGVTECDNYTIRNLVLKQGSHTQHVKHYWYTSWPDHKTPDSAQPLLQLMLDVEEDRLASEGRGPVVVHCSAGIGRTGCFIATSIGCQQLKEEGVVDALSIVCQLRVDRGGMVQTSEQYEFVHHALCLFESRLSPETV | soluble |
| MKKLIIIPAYNESSNIVNTIRTIESDAPDFDYIIIDDCSTDNTLAICQKQGFNVISLPINLGIGGAVQTGYRYAQRCGYDVAVQVDGDGQHNPCYLEKMVEVLVQSSVNMVIGSRFITKEGFQSSFARRIGIKYFTWLIALLTGKKITDATSGLRLIDRSLIERFANHYPDDYPEPETVVDVLVSHFKVKEIPVVMNERQGGVSSISLTKSVYYMIKVTLAILVVRLKGNR | not soluble |
| SAFQKAASLLGAPIGHDFCVISLSDLMTPWDRIEKRIHAAATADFVTAVYNPKSEGRYWQLYRLKEIFLKERDPETPVGFVRQAGRKEETVTITTLQEFDPEQVDMFTVVLIGNSQSYHQEG | soluble |
| MVKVIASSVRKGNVLDVDGKLYVVLTAQNFHPGKGTPVTQVDMRRIVDGTKVSERWRTTEQVERAFVEDLNFQFLYEDGEGFHFMNPENYDQVVVDVETMGDQKAYLQEGMTCVLSIHEGNPLAVELPRHVTLEIVETEPVVKGQTASSSYKPAILSNGIRTMVPPHIDAGIRVVIATEDNSYVERAKN | not soluble |
| MGSDKIHHHHHHMSLTIDGVTKKFGTFTAVNNLHVSVPKGEMFGMLGANGAGKTTTFRMILGLLEPTEGTIHWREQPLTYNQTNCIGYLPEERGLYPKLTVKDQLKYLGRLKGMKTQDIQKEMKMWLERFEVPEYEHKRVEQLSKGNQQKIQFIASVLHRPELLILDEPFSGLDPVNVELLKKAVIDLKKEGTTILFSSHRMEHVEELCQHLCILHRGSPVVEGNLKNIKRSFGKKNVIIQGEFALEPLVDIPGVLRHQETSAGAKFQIANEETAKLLFQAVATAGFVQKFELEEPSLHDIFVEKVGTRYE | not soluble |
| MGSDKIHHHHHHMGACQPNNSQLYIGIDGGGSKCRATIYTAEHQKLGTGVAGRANPLHGLEQTFLSITESTQLAIADAGLAPSTSQQLIAGIGLAGVNVSHYYQHIVNWQHPFKAMYLTTDLHTACIGAHNGEDGAVIITGTGSCGYAHVGDNTICLGGHGFALGDKGSGAWLGLKAVEHVLLALDGFACATSLTERLLSHFNALDAMGIVEQLAGQSSSAYAKLARSVLACAQEGDAVAISIVKEGAEYICKLARKLFAVNPSRFSMIGGLVEPLYPWLDEDVAKRISPALTPPEFGAFLFARKQFNTKA | not soluble |
| MGHHHHHHSHMHPDCGFLLNKDVGNIAKYDIRVKNLKSRLRGGKMRYQEEEARLASFRNWPFYVQGISPCVLSEAGFVFTGKQDTVQCFSCGGCLGNWEEGDDPWKEHAKWFPKCEFLRSKKSSEEITQYIQSYKGFVDITGEH | soluble |
| MFADLDYDIEEDKLGIPTVPGKVTLQKDAQNLIGISIGGGAQYCPCLYIVQVFDNTPAALDGTVAAGDEITGVNGRSIKGKTKVEVAKMIQEVKGEVTIHYNKLQADPKQLEVLFNGPGIESVKI | soluble |
| MTPFPAYVPPDFTRPDLAAAPPVRVAEAPGSGVLPAGFHATSNYPEYVHLGGGRWLLASGSRMDAVLVLDGDMLRVVEPRLVRRGDRVVVGRTENGEEGIYVHTTGFDAPAGAGGDKFTFRSRGTRESPFSRSYEELYDILRHDRDHGHIVWVLGPAVAFDRDSRAAMAGLIGGGYCHALLAGNALATHDLEAALFHTGLGQDIYTQALVAGGHYHHLDVINEVLRHGSLERAIAELGIRDGIIRACLEHRVPVVLAGSIRDDGPLPDVITDSRQAQDAMRAHARRATTVIALATQLHAIAVGNMTPSYRVLDDGTVRPVYFYIVDMSEFGADKLANRGSGQARAILTNVQDFMVNLWNNLKG | not soluble |
| MAHHHHHHMDSPTEFSCGTQWDDDRRGEEPLLPELTLHGCGLRNLSLIVRGAQGAVYSAHDENGNRFAVKRLFTQRSDFGIRGVSEGALREATLLTLVRQEMEKLVHDTAFDVVRLQGVVEAPYKELCLILEYCSLDLSQVVVKSKRHTRSFPLVAEGPQVRCPVLSNMGVVRYLLRGILQILNNLHVNCRIIHRDVKLSNFLVRGDGSVRLSDFGSARLLHETVEEKEAAECVTSDPQDEDEVDCSDPFSHSCEGYTPAAQRTTLIYQAPECLLGERTYTTAVDVWAVGIVFAEILLQRHLFRSVNELTLISDIWRLLGTPSTKGEDPNIQGTNGVTFAAPTEPTVDVKFNDDIVSPEGRDLLKKMLEVDPKKRVTAADALRHSFLTSVDAQLSLKEAPALWREKVKECLEGGTQAVPMGAPFLALDDDEEEEEEEEDVDMNMATL | not soluble |
| GPGSVPPKKPTEVPKLVRINTNEKGITNVQLARAPVNSMSLELFQELNQWMLWLGCNEETKAVIISSAIPTVFSAGLEFSEVHNPKPDRIAVFWQSFQEMWRILDTFPKPIIAAITGNSPAAGCIIAMGCDYRVMARGPKGNTNNNRLYRIGLNETKLGLVPPPWTVSAYAYLLGSRQAEEMLQLGETPVADDARNLGLIDEVAADEERAIEVAYQQAERFLSVPQEARRVSRDMARCEYLRLLATEDDRNYDTEFFTQYMLRPEVQKNLESYLERLKSRSRK | not soluble |
| MDKFKSMTELKELTKEGKDWEIECENRSSIVTILALHGGGIEPATTELAYTIAHCGDYNYFSFKGMRSKGNNELHVTSTHYDDQIALDLVRGSQRTVAIHGCEGNESVAYIGGSDDRLIELITESLEDIGISVREAPHHISGTQENNIVNMTQTQGGVQLELTAQLRKELFKNRKSSRKNRENKDNWDDLMYDFADAMKKAIERALEHHHHHH | soluble |
| MVHYKLSYFPIRGAGEVIRQIFVYAGQSFEDHRISIEEWAAVKPTTPFGQLPLLEVDGKVLPQSHSIARFLARQFGINGKCAWEEAQVNSIADQFKDYRNEVRPYVMVKMGFAEGDLDALSKDVFLPGFKKHYGFIYNFLKTAGSGYLVGDSLTFVDLLIAQHTADILSTDPALLEEFPQFKAHQEKVHSNANIKKWLETRPETQF | not soluble |
| MPHMSEPQRLFFAIDLPAEIREQIIHWRATHFPPEAGRPVAADNLHLTLAFLGEVSAEKEKALSLLAGRIRQPGFTLTLDDAGQWLRSRVVWLGMRQPPRGLIQLANMLRSQAARSGCFQSNRPFHPHITLLRDASEAVTIPPPGFNWSYAVTEFTLYASSFARGRTRYTPLKRWALTQ | not soluble |
| MLLEAPVYKEIFGAVTIHEVQKVIKMDTETEEVPIYTISNIPREKIYDLLGKMAVIVPMKNEKLHLVDGVLKAIPHKCPIIIVSNSKREGPNRYKLEVDLIRHFYNLTHSKIIMIHQKDPGLAKAFKEVGYTDILDENGMIRSGKGEGMLVGLLLAKAIGAEYVGFVDADNYIPGAVNEYVKDYAAGFLMSESEYTMVRLHWRHKPKVTKGTLYFKKWGRVSEITNHYLNLLVSEHTAFETTIMVTGNAGEHAMTMKLAEILPFSTGYSIEPYEIVYILERFGKWENVEEFKDVFDQGIEIFQIETLNPHFHEDKGKEHVKEMLLLSLATIYHSKLATDNLRKRILKDLRDHGILGENEEPPKPLVMRPIKEIPIKEWMDIVEGNSETLLRFEL | soluble |
| MSLCEDMLLCNYRKCRIKLSGYAWVTACSHIFCDQHGSGEFSRSPAICPACNSTLSGKLDIVRTELSPSEEYKAMVLAGLRPEIVLDISSRALAFWTYQVHQERLYQEYNFSKAEGHLKQMEKIYTQQIQSKDVELTSMKGEVTSMKKVLEEYKKKFSDISEKLMERNRQYQKLQGLYDSLRLRNITIANHEGTLEPSMIAQSGVLGFPLGNNSKFPLDNTPVRNRGDGDGDFQFRPFFAGSPTAPEPSNSFFSFVSPSRELEQQQVSSRAFKVKRI | soluble |
| MGSDKIHHHHHHMNILVIGANGGVGSLLVQQLAKENVPFTAGVRQSDQLNALKSQGMKAILVDVENDSIETLTETFKPFDKVIFSVGSGGNTGADKTIIVDLDGAVKSMIASKEANIKHYVMVSTYDSRRQAFDDSGDLKPYTIAKHYADDYLRRSGLNYTILHPGALTNAAGSGKIEAAQYFDGKGEIPREDVATVLKEIVTSNHFNHQEFQIISGEQDIKDALTQFEIEKD | not soluble |
| DIQMSQSSSSFSVSLGDRVTITCKASEDIYSRLAWYQQKPGNAPRLLISGATSLETWVPSRFSGSDSGKDYTLSITSLQTEDVATYFCQQYWSPPPTFGGGTKLEIKRADAAPTVSIFPPSSEQLTSGGASVVCFLNNFYPKDINVKWKIDGSERQNGVLNSWTDQDSKDSTYSMSSTLTLTKDEYERHNSYTCEATHKTSTSPIVKSFNRNEC | soluble |
| SLTPLSAITVRSMEGPPTVQQQSPSVIRQSPTQRRKTSTTSSTSRAPPPTNPDASSSSSSFAVPTIHFKESPFYKIQRLIPELVMNVEVTGGRGMCSAKFKLSKADYNLLSNPNSKHRLYLFSGMINPLGSRGNEPIQFPFPNELRCNNVQIKDNIRGFKSKPGTAKPADLTPHLKPYTQQNNVELIYAFTTKEYKLFGYIVEMITPEQLLEKVLQHPKIIKQATLLYLKKTLREDEEMGLTTTSTIMSLQCPISYTRMKYPSKSINCKHLQCFDALWFLHSQLQIPTWQCPVCQIDIALENLAISEFVDDILQNCQKNVEQVELTSDGKWTAILEDDDDSDSDSNDGSRSPEKGTLGEGAAALEHHHHHH | soluble |
